T1: FcγRIIb (human, UniProt P31994 43-217)
T1 construct: extracellular domain; also called 2b; FcgRIIb
T1 sequence (looked up): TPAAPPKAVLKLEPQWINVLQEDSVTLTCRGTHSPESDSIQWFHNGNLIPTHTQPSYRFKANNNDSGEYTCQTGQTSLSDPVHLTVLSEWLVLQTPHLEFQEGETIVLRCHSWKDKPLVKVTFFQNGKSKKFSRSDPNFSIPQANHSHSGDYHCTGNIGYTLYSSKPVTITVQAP

T2: FcγRIIa R (human, UniProt P12318 34-217)
T2 construct: extracellular domain; also called FcgRIIa R type; 2aR
T2 sequence (looked up): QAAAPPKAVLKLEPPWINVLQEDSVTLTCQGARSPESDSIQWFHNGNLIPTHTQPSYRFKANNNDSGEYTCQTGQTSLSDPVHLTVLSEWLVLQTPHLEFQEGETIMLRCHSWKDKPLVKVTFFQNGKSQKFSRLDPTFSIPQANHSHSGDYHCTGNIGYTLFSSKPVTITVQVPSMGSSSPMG


Key:
[1] = target: T1, FcγRIIb; assay: SPR (Biacore), binding relative to GpH7-B3/GpL16-k0 = 100
Protocol: (§1) Analysis of interaction between objective antibody and the FcγR was carried out using Biacore T100 (GE Healthcare). HBS-EP+ (GE Healthcare) was used as the running buffer, and the measurement temperature was set to 25° C. Chips produced by immobilizing the antigen peptide by the amine coupling method to a Series S Sencor Chip CM5 (GE Healthcare), or alternatively, chips produced by allowing preliminarily biotinylated antigen peptides to interact with and immobilize onto a Series S Sensor Chip SA (certified) (GE Healthcare) were used. Antibodies of interest were captured onto an antigen peptide-immobilized chip, and allowed to interact to each FcγR diluted with running buffer. To regenerate and repeatedly use the chip, the antibodies captured on the chip were washed off by reacting 10 mM glycine-HCl, pH 1.5.
(§2) The FcγR-binding activity of each antibody was assessed primarily using as an indicator the FcγR-binding activity and dissociation constant for FcγR.

[2] = target: T2, FcγRIIa R; assay: SPR Biacore; vs GpH7-B3/GpL16-k0 =100
Protocol: as §1, §2

Row | Binder | Ho/Con_2b [1] | Ho/Con_2aR [2]
1 | GpH7-B3 variant G237_02A/GpL16-k0 (antibody, human IgG1, kappa, also called Ho Ab G237_02A) heavy: not shown light: DIVMTQSPLSLPVTPGEPASISCQASESLVHSNRNTYLHWYLQKPGQSPQLLIYKVSNRFSGVPDRFSGSGSGTDFTLKISRVEAEDVGVYYCSQNTHVPPTFGQGTKVEIERTVAAPSVFIFPPSDEQLKSGTASVVCLLNNFYPREAKVQWKVDNALQSGNSQESVTEQDSKDSTYSLSSTLTLSKADYEKHKVYACEVTHQGLSSPVTKSFNRGEC | 47.8 % of control | 
2 | GpH7-B3 variant G237_06M/GpL16-k0 (antibody, human IgG1, kappa, also called Ho Ab G237_06M) heavy: not shown light: DIVMTQSPLSLPVTPGEPASISCQASESLVHSNRNTYLHWYLQKPGQSPQLLIYKVSNRFSGVPDRFSGSGSGTDFTLKISRVEAEDVGVYYCSQNTHVPPTFGQGTKVEIERTVAAPSVFIFPPSDEQLKSGTASVVCLLNNFYPREAKVQWKVDNALQSGNSQESVTEQDSKDSTYSLSSTLTLSKADYEKHKVYACEVTHQGLSSPVTKSFNRGEC | 35.3 % of control | 
3 | GpH7-B3 variant A330_05P/GpL16-k0 (antibody, human IgG1, kappa, also called Ho Ab A330_05P) heavy: not shown light: DIVMTQSPLSLPVTPGEPASISCQASESLVHSNRNTYLHWYLQKPGQSPQLLIYKVSNRFSGVPDRFSGSGSGTDFTLKISRVEAEDVGVYYCSQNTHVPPTFGQGTKVEIERTVAAPSVFIFPPSDEQLKSGTASVVCLLNNFYPREAKVQWKVDNALQSGNSQESVTEQDSKDSTYSLSSTLTLSKADYEKHKVYACEVTHQGLSSPVTKSFNRGEC | 35.3 % of control | 
4 | GpH7-B3 variant G237_09D/GpL16-k0 (antibody, human IgG1, kappa, also called Ho Ab G237_09D) heavy: not shown light: DIVMTQSPLSLPVTPGEPASISCQASESLVHSNRNTYLHWYLQKPGQSPQLLIYKVSNRFSGVPDRFSGSGSGTDFTLKISRVEAEDVGVYYCSQNTHVPPTFGQGTKVEIERTVAAPSVFIFPPSDEQLKSGTASVVCLLNNFYPREAKVQWKVDNALQSGNSQESVTEQDSKDSTYSLSSTLTLSKADYEKHKVYACEVTHQGLSSPVTKSFNRGEC | 92.9 % of control | 
5 | GpH7-B3 variant S239_08L/GpL16-k0 (antibody, human IgG1, kappa, also called Ho Ab S239_08L) heavy: not shown light: DIVMTQSPLSLPVTPGEPASISCQASESLVHSNRNTYLHWYLQKPGQSPQLLIYKVSNRFSGVPDRFSGSGSGTDFTLKISRVEAEDVGVYYCSQNTHVPPTFGQGTKVEIERTVAAPSVFIFPPSDEQLKSGTASVVCLLNNFYPREAKVQWKVDNALQSGNSQESVTEQDSKDSTYSLSSTLTLSKADYEKHKVYACEVTHQGLSSPVTKSFNRGEC |  | 106 % of control
6 | GpH7-B3 variant P331_16H/GpL16-k0 (antibody, human IgG1, kappa, also called Ho Ab P331_16H) heavy: not shown light: DIVMTQSPLSLPVTPGEPASISCQASESLVHSNRNTYLHWYLQKPGQSPQLLIYKVSNRFSGVPDRFSGSGSGTDFTLKISRVEAEDVGVYYCSQNTHVPPTFGQGTKVEIERTVAAPSVFIFPPSDEQLKSGTASVVCLLNNFYPREAKVQWKVDNALQSGNSQESVTEQDSKDSTYSLSSTLTLSKADYEKHKVYACEVTHQGLSSPVTKSFNRGEC |  | 100 % of control
7 | GpH7-B3 variant S239_18N/GpL16-k0 (antibody, human IgG1, kappa, also called Ho Ab S239_18N) heavy: not shown light: DIVMTQSPLSLPVTPGEPASISCQASESLVHSNRNTYLHWYLQKPGQSPQLLIYKVSNRFSGVPDRFSGSGSGTDFTLKISRVEAEDVGVYYCSQNTHVPPTFGQGTKVEIERTVAAPSVFIFPPSDEQLKSGTASVVCLLNNFYPREAKVQWKVDNALQSGNSQESVTEQDSKDSTYSLSSTLTLSKADYEKHKVYACEVTHQGLSSPVTKSFNRGEC |  | 103 % of control
8 | GpH7-B3 variant P331_15Y/GpL16-k0 (antibody, human IgG1, kappa, also called Ho Ab P331_15Y) heavy: not shown light: DIVMTQSPLSLPVTPGEPASISCQASESLVHSNRNTYLHWYLQKPGQSPQLLIYKVSNRFSGVPDRFSGSGSGTDFTLKISRVEAEDVGVYYCSQNTHVPPTFGQGTKVEIERTVAAPSVFIFPPSDEQLKSGTASVVCLLNNFYPREAKVQWKVDNALQSGNSQESVTEQDSKDSTYSLSSTLTLSKADYEKHKVYACEVTHQGLSSPVTKSFNRGEC |  | 105 % of control
9 | GpH7-B3 variant S239_10E/GpL16-k0 (antibody, human IgG1, kappa, also called Ho Ab S239_10E) heavy: not shown light: DIVMTQSPLSLPVTPGEPASISCQASESLVHSNRNTYLHWYLQKPGQSPQLLIYKVSNRFSGVPDRFSGSGSGTDFTLKISRVEAEDVGVYYCSQNTHVPPTFGQGTKVEIERTVAAPSVFIFPPSDEQLKSGTASVVCLLNNFYPREAKVQWKVDNALQSGNSQESVTEQDSKDSTYSLSSTLTLSKADYEKHKVYACEVTHQGLSSPVTKSFNRGEC |  | 122 % of control
10 | GpH7-B3 variant A330_01G/GpL16-k0 (antibody, human IgG1, kappa, also called Ho Ab A330_01G) heavy: not shown light: DIVMTQSPLSLPVTPGEPASISCQASESLVHSNRNTYLHWYLQKPGQSPQLLIYKVSNRFSGVPDRFSGSGSGTDFTLKISRVEAEDVGVYYCSQNTHVPPTFGQGTKVEIERTVAAPSVFIFPPSDEQLKSGTASVVCLLNNFYPREAKVQWKVDNALQSGNSQESVTEQDSKDSTYSLSSTLTLSKADYEKHKVYACEVTHQGLSSPVTKSFNRGEC | 102 % of control | 

Source: US20180155451A1 (published 2018)
